Drawing on patent EP0866075B1, “Method to treat microbial infections by uncoupling of phosphotransferase system and appropriate agents therefor” (Arpida AG,, priority 1997, dated 1998), this text covers inhibition IC50 and uncoupling Pi/peptide (x IC50/h) (Pi/peptide (x IC50/h)) for one molecule.

The experiment addresses enzyme I (phosphoenolpyruvate-protein phosphotransferase, EC 2.7.3.9) of the E. coli phosphotransferase system (E. coli), P08839. In words: cell-based or functional assay.

The molecule SSLRGHRWVY (modifications not checked) [peptide 17 …] showed an inhibition IC50 of 120 µM and an uncoupling Pi/peptide (x IC50/h) (Pi/peptide (x IC50/h)) of 50.3.
